Data on 1 molecule can be found in US20220056091A1 (BRIGHT PEAK THERAPEUTICS, published 2022).

Common to all, as to experiment: cell-based or functional assay
Experiment [1] addresses T1, IL-18 polypeptide of SEQ ID NO: 1 (native sequence, human IL-18 37-193) (human, UniProt Q14116 37-193).
T1 sequence: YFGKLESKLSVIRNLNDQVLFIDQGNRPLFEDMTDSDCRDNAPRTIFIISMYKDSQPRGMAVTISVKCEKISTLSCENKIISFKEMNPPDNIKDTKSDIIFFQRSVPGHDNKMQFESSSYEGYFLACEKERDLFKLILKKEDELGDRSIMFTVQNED

The target of experiment [2] is T2, Modified IL-18 polypeptide of SEQ ID NO: 3 (Y01G, F02A, E06K, M51G, K53A, D54A, S55A, T63A) (human, UniProt Q14116 37-193).
T2 chain: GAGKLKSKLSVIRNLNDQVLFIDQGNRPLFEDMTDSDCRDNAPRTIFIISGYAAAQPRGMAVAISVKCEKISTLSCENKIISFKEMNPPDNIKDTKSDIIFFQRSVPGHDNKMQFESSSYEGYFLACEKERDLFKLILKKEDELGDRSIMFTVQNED

In experiment [3] the target is Modified IL-18 polypeptide of SEQ ID NO: 4 (K53A) (human, UniProt Q14116 37-193).
Experiment [4] deals with Modified IL-18 polypeptide of SEQ ID NO: 5 (S55A) (human, UniProt Q14116 37-193).
The target of experiment [5] is T3, Modified IL-18 polypeptide of SEQ ID NO: 15 (C38S, C68S, C76S, C127S) (human, UniProt Q14116 37-193).
T3 chain: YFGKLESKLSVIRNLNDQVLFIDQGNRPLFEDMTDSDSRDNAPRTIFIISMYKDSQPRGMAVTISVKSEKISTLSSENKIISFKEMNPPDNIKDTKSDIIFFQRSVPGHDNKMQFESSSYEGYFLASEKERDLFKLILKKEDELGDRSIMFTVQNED

The target of experiment [6] is T4, Modified IL-18 polypeptide of SEQ ID NO: 14 (E06K, K53A, S55A, M51G) (human, UniProt Q14116 37-193).
T4 chain: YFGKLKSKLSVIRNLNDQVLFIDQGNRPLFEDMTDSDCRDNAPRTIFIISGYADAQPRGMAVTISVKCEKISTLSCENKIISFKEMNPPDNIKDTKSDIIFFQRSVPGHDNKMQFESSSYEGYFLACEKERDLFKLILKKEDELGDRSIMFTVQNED

Experiment [7] addresses T5, Modified IL-18 polypeptide of SEQ ID NO: 16 (C38S, C68S, C76S, C127S, K70C) (human, UniProt Q14116 37-193).
T5 chain: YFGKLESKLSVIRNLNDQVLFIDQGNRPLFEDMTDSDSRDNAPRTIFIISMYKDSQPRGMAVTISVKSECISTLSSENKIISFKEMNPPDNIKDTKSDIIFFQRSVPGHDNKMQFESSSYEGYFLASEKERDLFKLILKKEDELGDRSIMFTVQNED

Experiment [8] has as its target Modified IL-18 polypeptide of SEQ ID NO: 21 (K53A, T63A) (human, UniProt Q14116 37-193).
The target of experiment [9] is T6, Modified IL-18 polypeptide of SEQ ID NO: 23 (K53A, T63A, C38S, C68S, C76S, C127S, K70C) (human, UniProt Q14116 37-193).
T6 chain: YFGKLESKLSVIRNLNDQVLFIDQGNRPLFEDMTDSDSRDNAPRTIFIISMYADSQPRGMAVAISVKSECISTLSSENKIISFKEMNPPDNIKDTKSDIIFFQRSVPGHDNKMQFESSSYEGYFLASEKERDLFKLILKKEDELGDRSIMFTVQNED

The target in experiment [10] is Modified IL-18 polypeptide of SEQ ID NO: 19 (T63A) (human, UniProt Q14116 37-193).
Experiment [11] deals with Modified IL-18 polypeptide of SEQ ID NO: 9 (K53A, S55A) (human, UniProt Q14116 37-193).
Experiment [12] deals with T7, Modified IL-18 polypeptide of SEQ ID NO: 71 with a 30 kDa PEG attached at residue C68 (E6K, C38S, K53A, … (human, UniProt Q14116 37-193, 30 kDa PEG on Cys 68 (30 kDa DBCO-polyethylene glycol clicked to a bromoacetamido-PEG5-azide linker on the cysteine))).
T7 chain: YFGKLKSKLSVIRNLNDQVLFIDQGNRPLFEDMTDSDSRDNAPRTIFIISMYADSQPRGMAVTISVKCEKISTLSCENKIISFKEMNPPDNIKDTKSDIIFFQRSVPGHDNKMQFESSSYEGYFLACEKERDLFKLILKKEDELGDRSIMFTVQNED

Experiment [13] concerns the target T8, Modified IL-18 polypeptide of SEQ ID NO: 18 (E06K, K53A, T63A) (human, UniProt Q14116 37-193).
T8 chain: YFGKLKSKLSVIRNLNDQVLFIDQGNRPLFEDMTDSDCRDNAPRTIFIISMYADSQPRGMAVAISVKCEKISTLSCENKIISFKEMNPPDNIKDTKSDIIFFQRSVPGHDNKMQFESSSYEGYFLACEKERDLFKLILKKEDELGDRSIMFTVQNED

In experiment [14] the target is T1, IL-18 polypeptide of SEQ ID NO: 1 …. This is another data set of the same source.
Experiment [15] concerns the target T9, Modified IL-18 polypeptide of SEQ ID NO: 2 (E06K, K53A, S55A) (human, UniProt Q14116 37-193).
T9 chain: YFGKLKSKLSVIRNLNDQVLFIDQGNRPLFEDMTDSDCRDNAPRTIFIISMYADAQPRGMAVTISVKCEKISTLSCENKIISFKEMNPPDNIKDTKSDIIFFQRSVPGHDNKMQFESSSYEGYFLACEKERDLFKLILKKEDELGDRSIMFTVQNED

B1: Fc fused human IL-18BP isoform a (IL-18BPa) (Fc fusion, UniProt O95998 31-194, looked up, not shown: a dimerising Fc or GST)
chain: TPVSQTTTAATASVRSTKDPCPSQPPVFPAAKQCPALEVTWPEVEVPLNGTLSLSCVACSRFPNFSILYWLGNGSFIEHLPGRLWEGSTSRERGSTGTQLCKALVLEQLTPALHSTNFSCVLVDPEQVVQRHVVLAQLWAGLRATLPPTQEALPSSHSSPQQQG
Regarding B1, the “IC50 (read off the curve); IFNγ production by NK-92 cells stimulated with IL-18 WT” value in experiment [1] was around 1 nM. Besides, the “IC50 (nM), IL-18BPa inhibition of IFNγ release by NK-92 cells (1 nM IL-18 analyte)” value (shortened to “IC50 (nM), IL-18BPa inhibition”) in experiment [2] is above 55 nM; in [3] it was 27.3 nM; in experiment [4], 4.46 nM; in experiment [5] it was 0.444 nM; in experiment [6], 0.189 nM; in [7] it was 0.114 nM. Further, the “IC50 (nM), IL-18BPa inhibition” value in [8] was 18.2 nM; in experiment [9], above 1000 nM; in experiment [10], 0.239 nM; in experiment [11], 37.3 nM; in experiment [12] it was 0.66 nM; in experiment [13] it was above 1000 nM. The “IC50 (nM), IL-18BPa inhibition” value in [14] came out at 1.47 nM; in experiment [15], 229 nM.
